Measurements published in article PMC9482650, “Quantitative fragmentomics allow affinity mapping of interactomes” (Nature Communications, 2022).

Key:
Assay in all cases: holdup assay
Set-up in all cases: key: below the threshold = too weak to quantify, mostly under pKd 3.1 to 4
Details in all cases: plain residues with an end cap or a label only (N-terminal biotin on a linker: ado-ado)
[1] = molecular target: DLG2_2, Q15700
[2] = molecular target: MAGI3_2, Q5TCQ9
[3] = molecular target: T1, LNX2_3, Q8N448
T1 sequence (Q8N448 463-564, limits assumed, looked up): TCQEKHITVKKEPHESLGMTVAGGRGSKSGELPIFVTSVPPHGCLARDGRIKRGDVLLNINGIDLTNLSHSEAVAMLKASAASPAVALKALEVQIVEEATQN

[4] = molecular target: T2, FRMPD1, Q5SYB0
T2 sequence (Q5SYB0 52-145, limits assumed, looked up): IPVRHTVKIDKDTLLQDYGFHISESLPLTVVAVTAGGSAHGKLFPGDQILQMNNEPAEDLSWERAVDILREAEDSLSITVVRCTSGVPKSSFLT

[5] = molecular target: AHNAK1, Q09666
AHNAK1, Q09666, sequence (Q09666 4-100): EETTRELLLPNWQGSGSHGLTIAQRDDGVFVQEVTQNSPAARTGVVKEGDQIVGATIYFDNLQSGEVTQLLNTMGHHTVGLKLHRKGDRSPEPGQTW

[6] = molecular target: T3, RAPGEF6, Q8TEU7
T3 sequence (Q8TEU7 525-625, limits assumed, looked up): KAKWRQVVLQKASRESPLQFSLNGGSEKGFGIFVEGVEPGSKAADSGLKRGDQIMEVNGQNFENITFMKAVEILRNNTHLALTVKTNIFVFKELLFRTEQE

[7] = molecular target: LDB3, O75112
LDB3, O75112, sequence (O75112 1-94): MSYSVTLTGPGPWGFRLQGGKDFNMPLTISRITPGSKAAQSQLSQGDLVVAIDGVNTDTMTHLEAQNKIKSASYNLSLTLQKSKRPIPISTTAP

[8] = molecular target: T4, ARHGAP21, Q5T5U3
T4 sequence (Q5T5U3 45-169, limits assumed, looked up): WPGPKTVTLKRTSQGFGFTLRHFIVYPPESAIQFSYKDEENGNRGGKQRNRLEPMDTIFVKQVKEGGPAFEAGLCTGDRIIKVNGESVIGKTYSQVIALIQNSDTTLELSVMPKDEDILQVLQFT

[9] = molecular target: NHERF4_2, Q86UT5
NHERF4_2, Q86UT5, sequence (Q86UT5 220-308): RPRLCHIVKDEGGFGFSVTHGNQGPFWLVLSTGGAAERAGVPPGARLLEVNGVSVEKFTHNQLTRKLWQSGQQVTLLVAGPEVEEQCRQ

[10] = molecular target: MAGI2_3, Q86UL8
MAGI2_3, Q86UL8, sequence (Q86UL8 600-682): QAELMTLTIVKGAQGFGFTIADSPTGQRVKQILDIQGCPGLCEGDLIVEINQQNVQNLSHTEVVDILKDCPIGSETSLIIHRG

[11] = molecular target: MAGI2_4, Q86UL8
MAGI2_4, Q86UL8, sequence (Q86UL8 772-865): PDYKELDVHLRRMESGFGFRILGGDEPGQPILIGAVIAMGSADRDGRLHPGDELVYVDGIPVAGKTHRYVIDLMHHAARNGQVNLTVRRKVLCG

[12] = molecular target: Inadl_4, Q8NI35
Inadl_4, Q8NI35, sequence (Q8NI35 547-651): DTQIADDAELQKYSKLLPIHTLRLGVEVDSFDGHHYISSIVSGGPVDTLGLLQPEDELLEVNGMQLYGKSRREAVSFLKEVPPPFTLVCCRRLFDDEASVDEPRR

[13] = molecular target: PTPN3, P26045
PTPN3, P26045, sequence (P26045 505-587): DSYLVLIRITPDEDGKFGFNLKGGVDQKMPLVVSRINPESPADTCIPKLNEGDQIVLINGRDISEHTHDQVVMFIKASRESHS

[14] = molecular target: NHERF4_1, Q86UT5-2
NHERF4_1, Q86UT5-2, sequence (Q86UT5 other isoform, or with tags, fused parts or gaps): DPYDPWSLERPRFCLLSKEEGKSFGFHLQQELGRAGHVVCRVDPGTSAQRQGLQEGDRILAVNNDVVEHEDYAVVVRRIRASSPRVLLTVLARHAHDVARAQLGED

[15] = molecular target: GRID2IP_1, A4D2P6
GRID2IP_1, A4D2P6, sequence (A4D2P6 1-87): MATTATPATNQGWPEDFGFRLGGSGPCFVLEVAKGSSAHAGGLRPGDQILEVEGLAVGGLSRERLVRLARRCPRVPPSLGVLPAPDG

[16] = molecular target: FRMPD2_1, Q68DX3
FRMPD2_1, Q68DX3, sequence (Q68DX3 770-861): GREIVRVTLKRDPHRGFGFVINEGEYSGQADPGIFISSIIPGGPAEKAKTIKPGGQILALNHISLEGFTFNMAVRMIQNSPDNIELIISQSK

[17] = molecular target: PDLIM1, O00151
PDLIM1, O00151, sequence (O00151 1-87): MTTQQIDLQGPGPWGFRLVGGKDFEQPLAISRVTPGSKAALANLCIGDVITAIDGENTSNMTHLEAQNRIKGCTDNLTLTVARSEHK

[18] = molecular target: T5, DLG3_3, Q92796
T5 sequence (Q92796 374-475, limits assumed, looked up): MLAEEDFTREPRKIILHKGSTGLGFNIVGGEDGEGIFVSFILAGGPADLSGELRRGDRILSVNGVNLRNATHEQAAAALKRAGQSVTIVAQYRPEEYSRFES

[19] = molecular target: T6, LRRC7, Q96NW7
T6 sequence (Q96NW7 1440-1537, limits assumed, looked up): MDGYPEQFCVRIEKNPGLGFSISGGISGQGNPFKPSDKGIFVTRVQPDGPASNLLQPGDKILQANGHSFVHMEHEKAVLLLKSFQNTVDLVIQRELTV

[20] = molecular target: Inadl_8, Q8NI35
Inadl_8, Q8NI35, sequence (Q8NI35 1425-1530): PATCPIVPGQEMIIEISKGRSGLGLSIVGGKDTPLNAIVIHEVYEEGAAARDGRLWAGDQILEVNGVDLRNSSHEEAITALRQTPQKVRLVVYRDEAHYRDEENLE

[21] = molecular target: T7, TJP3_3, O95049
T7 sequence (O95049 375-456, limits assumed, looked up): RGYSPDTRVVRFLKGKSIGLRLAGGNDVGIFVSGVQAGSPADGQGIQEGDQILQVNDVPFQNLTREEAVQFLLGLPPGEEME

[22] = molecular target: T8, LIN7C, Q9NUP9
T8 sequence (Q9NUP9 88-185, limits assumed, looked up): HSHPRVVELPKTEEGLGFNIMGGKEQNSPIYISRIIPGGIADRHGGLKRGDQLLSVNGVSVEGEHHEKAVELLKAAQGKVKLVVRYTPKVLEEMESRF

[23] = molecular target: T9, SHANK1, Q9Y566
T9 sequence (Q9Y566 658-767, limits assumed, looked up): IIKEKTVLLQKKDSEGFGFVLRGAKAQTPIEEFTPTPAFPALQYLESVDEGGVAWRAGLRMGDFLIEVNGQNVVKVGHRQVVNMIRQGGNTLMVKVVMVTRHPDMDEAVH

[24] = molecular target: PARD3_3, Q8TEW0
PARD3_3, Q8TEW0, sequence (Q8TEW0 582-685): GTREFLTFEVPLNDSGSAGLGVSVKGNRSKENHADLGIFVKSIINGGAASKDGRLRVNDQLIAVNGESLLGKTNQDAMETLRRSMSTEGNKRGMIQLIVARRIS

[25] = molecular target: T10, APBA1_1, Q02410
T10 sequence (Q02410 651-752, limits assumed, looked up): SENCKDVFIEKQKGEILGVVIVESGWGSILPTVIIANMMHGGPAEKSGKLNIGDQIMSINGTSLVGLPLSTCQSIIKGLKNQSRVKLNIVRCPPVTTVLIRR

[26] = molecular target: T11, APBA3_1, O96018
T11 sequence (O96018 389-490, limits assumed, looked up): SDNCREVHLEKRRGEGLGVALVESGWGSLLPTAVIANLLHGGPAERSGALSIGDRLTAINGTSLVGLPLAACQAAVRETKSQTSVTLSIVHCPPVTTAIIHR

[27] = molecular target: Inadl_2, Q8NI35
Inadl_2, Q8NI35, sequence (Q8NI35 238-335): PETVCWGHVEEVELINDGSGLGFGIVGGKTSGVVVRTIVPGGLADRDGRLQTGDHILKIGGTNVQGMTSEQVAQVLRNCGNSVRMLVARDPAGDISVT

DLG2_2, Q15700, sequence (Q15700 189-283): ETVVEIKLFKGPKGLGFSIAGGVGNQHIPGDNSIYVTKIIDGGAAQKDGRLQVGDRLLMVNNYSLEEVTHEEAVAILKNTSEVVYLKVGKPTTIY
MAGI3_2, Q5TCQ9, sequence (Q5TCQ9 398-503): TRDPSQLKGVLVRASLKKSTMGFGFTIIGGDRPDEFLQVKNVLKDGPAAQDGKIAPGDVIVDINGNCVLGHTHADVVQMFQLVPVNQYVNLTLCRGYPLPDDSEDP

B1: GJD4, Q96KN9 (peptide)
chain: HLRARKSEWV
In the case of B1, the pKd [1] is reported as 3.62, the pKd [2] is reported as 4.04 and the pKd [3] is reported as “below the threshold”. For the same binder, the pKd [4] was “below the threshold”, the pKd [5] was “below the threshold” and the pKd [6] was 3.5. For the same binder, the pKd [7] was “below the threshold”, the pKd [8] was 3.56 and the pKd [9] was “below the threshold”. The pKd [10] was “below the threshold”, the pKd [11] was 3.71 and the pKd [12] was “below the threshold”. For the same binder, the pKd [13] was 3.99, the pKd [14] was 4.06 and the pKd [15] was “below the threshold”. The pKd [16] was 4.24, the pKd [17] was “below the threshold” and the pKd [18] was “below the threshold”. The pKd [19] was 3.81, the pKd [20] was 3.59 and the pKd [21] was 4.63. The pKd [22] was “below the threshold”, the pKd [23] was “below the threshold” and the pKd [24] was “below the threshold”. For the same binder, the pKd [25] was “below the threshold”, the pKd [26] was “below the threshold” and the pKd [27] was “below the threshold”.

B2: ERBB2, P04626 (peptide)
chain: PEYLGLDVPV
In the case of B2, the pKd [1] is reported as “below the threshold”, the pKd [2] is reported as “below the threshold” and the pKd [3] is reported as “below the threshold”. For the same binder, the pKd [4] was “below the threshold”, the pKd [5] was “below the threshold” and the pKd [6] was “below the threshold”. The pKd [7] was “below the threshold”, the pKd [8] was 4.12 and the pKd [9] was “below the threshold”. For the same binder, the pKd [10] was 3.5, the pKd [11] was “below the threshold” and the pKd [12] was “below the threshold”. For the same binder, the pKd [13] was “below the threshold”, the pKd [14] was “below the threshold” and the pKd [15] was “below the threshold”. For the same binder, the pKd [16] was 3.53, the pKd [17] was “below the threshold” and the pKd [18] was “below the threshold”. For the same binder, the pKd [19] was “below the threshold”, the pKd [20] was “below the threshold” and the pKd [21] was “below the threshold”. The pKd [22] was “below the threshold”, the pKd [23] was “below the threshold” and the pKd [24] was 3.52. For the same binder, the pKd [25] was “below the threshold”, the pKd [26] was “below the threshold” and the pKd [27] was “below the threshold”.

B3: IQSEC2, Q5JU85 (peptide)
chain: AKPSRISTVV
For B3, the pKd [1] was 5.21, the pKd [2] was 5.42 and the pKd [3] was “below the threshold”. For the same binder, the pKd [4] was “below the threshold”, the pKd [5] was “below the threshold” and the pKd [6] was “below the threshold”. For the same binder, the pKd [7] was “below the threshold”, the pKd [8] was “below the threshold” and the pKd [9] was “below the threshold”. For the same binder, the pKd [10] was 3.55, the pKd [11] was 4.68 and the pKd [12] was “below the threshold”. For the same binder, the pKd [13] was 4.21, the pKd [14] was 3.48 and the pKd [15] was “below the threshold”. For the same binder, the pKd [16] was 3.53, the pKd [17] was “below the threshold” and the pKd [18] was 4.18. For the same binder, the pKd [19] was “below the threshold”, the pKd [20] was 3.89 and the pKd [21] was “below the threshold”. The pKd [22] was “below the threshold”, the pKd [23] was 3.96 and the pKd [24] was “below the threshold”. For the same binder, the pKd [25] was “below the threshold”, the pKd [26] was “below the threshold” and the pKd [27] was “below the threshold”.

B4: ABCA7, Q8IZY2 (peptide)
chain: DDPSTAETVL
In the case of B4, the pKd [1] is reported as “below the threshold”, the pKd [2] is reported as “below the threshold” and the pKd [3] is reported as “below the threshold”. The pKd [4] was “below the threshold”, the pKd [5] was “below the threshold” and the pKd [6] was “below the threshold”. For the same binder, the pKd [7] was “below the threshold”, the pKd [8] was 3.8 and the pKd [9] was “below the threshold”. The pKd [10] was 3.71, the pKd [11] was “below the threshold” and the pKd [12] was “below the threshold”. The pKd [13] was 4.83, the pKd [14] was 3.86 and the pKd [15] was “below the threshold”. The pKd [16] was “below the threshold”, the pKd [17] was “below the threshold” and the pKd [18] was “below the threshold”. For the same binder, the pKd [19] was “below the threshold”, the pKd [20] was “below the threshold” and the pKd [21] was “below the threshold”. The pKd [22] was “below the threshold”, the pKd [23] was 4.74 and the pKd [24] was 4.56. The pKd [25] was “below the threshold”, the pKd [26] was “below the threshold” and the pKd [27] was “below the threshold”.

B5: TBC1D10A, Q9BXI6 (peptide)
chain: TSQESEDTYL
B5 was tested, and the pKd [1] was “below the threshold”, the pKd [2] was “below the threshold” and the pKd [3] was “below the threshold”. For the same binder, the pKd [4] was “below the threshold”, the pKd [5] was “below the threshold” and the pKd [6] was “below the threshold”. The pKd [7] was “below the threshold”, the pKd [8] was 4.45 and the pKd [9] was “below the threshold”. The pKd [10] was “below the threshold”, the pKd [11] was “below the threshold” and the pKd [12] was “below the threshold”. For the same binder, the pKd [13] was 4.88, the pKd [14] was 3.97 and the pKd [15] was “below the threshold”. The pKd [16] was “below the threshold”, the pKd [17] was “below the threshold” and the pKd [18] was “below the threshold”. The pKd [19] was 3.85, the pKd [20] was “below the threshold” and the pKd [21] was “below the threshold”. The pKd [22] was “below the threshold”, the pKd [23] was 4.99 and the pKd [24] was 4.63. The pKd [25] was “below the threshold”, the pKd [26] was “below the threshold” and the pKd [27] was “below the threshold”.
